Key:
purified protein [1] = substrate: O=C(O)[C@@H](COP(=O)(O)O)OP(=O)(O)O; assay: purified protein; type: biochemical, Methanothermus fervidus; details: 10 mM ATP constant, Mg2+/ATP molar ratio 0.5, 50 mM MES/KOH pH 6.5, 400 mM KCl, 55°C, two-substrate Michaelis-Menten fit
purified protein [2] = substrate: Nc1ncnc2c1ncn2[C@@H]1O[C@H](COP(=O)(O)OP(=O)(O)OP(=O)(O)O)[C@@H](O)[C@H]1O; assay: purified protein; type: biochemical, Methanothermus fervidus; details: 10 mM 2,3DPG constant, Mg2+/ATP molar ratio 0.5, 50 mM MES/KOH pH 6.5, 400 mM KCl, 55°C, two-substrate Michaelis-Menten fit

B1: MfcDPGS (cyclic-2,3-diphosphoglycerate synthetase) (Methanothermus fervidus DSM 2088) (protein)
chain: GETKKMICLVDGEHYFPVVKDSIEILDDLEHIDVVAVVFIGGTEKLQIEDPKEYSEKLGKPVFFGPDPKKIPYDVIKKCVKKYNADIVMDLSDEPVVDYTKRFRIASIVLKEGAVYQGADFKFEPLTEYDVLEKPSIKIIGTGKRIGKTAVSAYAARVIHKHKYNPCVVAMGRGGPREPEIVEGNKIEITAEYLLEQADKGVHAASDHWEDALMSRILTVGCRRCGGGMLGDTFITNVKRGAEIANKLDSDFVIMEGSGAAIPPVKTNRQIVTVGANQPMININNFFGPFRIGLADLVIITMCEEPMATTEKIKKVEKFIKEINPSANVIPTVFRPKPVGNVEGKKVLFATTAPKVVVGKLVNYLESKYGCDVVGVTPHLSNRPLLRRDLKKYINKADLMLTELKAAAVDVATRVAIEAGLDVVYCDNIPVVIDESYGNIDDAIIEVVEMAIDDFKNNR
notes: heat precipitation and SEC; homodimer (119 kDa)
**Q.** With B1 as the protein, how does the Km (purified protein [1]) read?
**A.** 1520 ± 400 µM

**Q.** What about the Km (purified protein [2]) of the same protein?
**A.** 550 ± 80 µM

Source: paper PMC12136491, “Establishment of an efficient one-step enzymatic synthesis of cyclic-2,3-diphosphoglycerate” (Frontiers in Microbiology, 2025)
